Measurements taken from patent US20080009038A1 (Chugai, published 2008).

What was measured:
[1] = molecular target: full-length human Mp1 expressed on BaF3 cells (human) (UniProt P40238); assay: cell-based or functional assay
human Mp1 = molecular target: T1, human Mp1 (human, UniProt P40238 26-491, limits assumed); assay: hybridoma supernatants; ELISA on shMp1-FLAG and hMp1-Fc, flow cytometry on CHO-human Mp1 cells, BaF3-human Mp1 proliferation
T1 construct: The analyses of section 1.6 used shMp1-FLAG and hMp1-Fc in ELISA, and CHO-human Mp1 and BaF3-human Mp1 cells; also called human Mpl; TPO receptor
T1 sequence (looked up): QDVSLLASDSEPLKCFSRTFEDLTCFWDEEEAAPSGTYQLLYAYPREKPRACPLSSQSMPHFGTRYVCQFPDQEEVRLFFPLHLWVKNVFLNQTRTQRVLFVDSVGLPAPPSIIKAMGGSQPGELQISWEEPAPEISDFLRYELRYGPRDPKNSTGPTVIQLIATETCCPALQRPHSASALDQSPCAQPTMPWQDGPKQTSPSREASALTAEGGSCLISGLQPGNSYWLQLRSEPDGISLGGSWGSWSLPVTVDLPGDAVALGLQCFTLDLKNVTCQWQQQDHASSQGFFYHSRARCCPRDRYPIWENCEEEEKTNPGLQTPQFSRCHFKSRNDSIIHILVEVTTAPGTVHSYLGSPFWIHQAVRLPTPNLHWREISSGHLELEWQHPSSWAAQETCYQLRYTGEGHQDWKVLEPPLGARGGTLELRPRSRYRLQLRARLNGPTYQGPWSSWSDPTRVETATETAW
Protocol: MRL/MpJUmmCrj-lpr/lpr mice (hereinafter abbreviated as “MRL/lpr mice”; purchased from Charles River, Japan) were immunized; the primary immunization was carried out at eight weeks of age. For every single mouse, an emulsion containing 100 μg of shMPL-FLAG combined with Freud's complete adjuvant (H37 Ra; Beckton Dickinson), was administered subcutaneously as the primary injection. As a booster injection, an emulsion containing shMPL-FLAG (50 μg per mouse) combined with Freud's incomplete adjuvant (Beckton Dickinson) was administered subcutaneously. Three mice which have been immunized six times in total were subjected to a final injection of shMPL-FLAG (50 μg per mouse) through the caudal vein. Cell fusion was achieved by mixing the mouse myeloma P3-X63Ag8U1 cells (P3U1; purchased from ATCC) and mouse splenocytes using polyethylene glycol 1500 (Roche Diagnostics). Hybridoma selection in HAT medium began the following day and culture supernatants were obtained. Screening was carried out by ELISA using immunoplates with immobilized shMp1-FLAG or hMp1-Fc, and by a cell proliferation assay of BaF3-hMp1. Positive clones were isolated as single clones by limiting dilution and then cultured on a large scale. The culture supernatants were collected. Anti-human Mp1 antibody-producing hybridomas, VB22B, VB16, VB140, and VB45B, were obtained by this method.

B1: VB16 diabody (scFv, V domains shown, part only)
VH: QVQLQQPGTELVRPGASVKLSCKASGYTFTDYWVNWVKQRPGRGLEWIGRIHPYDSETHYNQKFKNKATLTVDKSSSTAYIQLSSLTSEDSAVYYCASGGWFASWGQGTLVTVSA
VL: DIVMTQAAPSVPVTPGESVSISCRSSKSLLYSNGNTYLYWFLQRPGQSPQLLIYRMSNLASGVPDRFSGSGSGTAFTLTISSVEAEDVGVYYCMQHLEYPYTFGSGTKLEIK
modifications: (Gly4Ser)1 linker; C-terminal FLAG tag
**Q.** Which agonistic activity (EC50 value: pM) in BaF3-human Mpl, cell proliferation (WST-8) [1] does the source give for B1 here?
**A.** 190 pM

B2: anti-human Mp1 antibody VB22B (antibody, mouse IgG2b, V domains shown)
VH: QVQLQQSGPELVKPGASVKISCKASGYAFTNSWMNWVKQRPGKGLEWIGRIYPGDGETIYNGKFRVKATLTADKSSSTAYMDISSLTSEDSAVYFCARGYDDYSFAYWGQGTLVTVSA
VL: DIVMTQAAPSIPVTPGESVSISCRSSKSLLHSNGNTYLYWFLQRPGQSPQLLIYRMSNLASGVPDRFSGSGSGTAFTLRISRVEAEDVGVYYCMQHIEYPFTFGSGTKLEIK
notes: Mouse monoclonal antibody from a hybridoma, tested as culture supernatant; they were cloned with primers for the mouse IgG2b and kappa constant regions
**Q.** Does B2 bind (human Mp1)?
**A.** binds

B3: VB45B diabody (scFv, V domains shown, part only)
VH: QVQLQQSGPELVKPGASVKISCKASGYAFSSSWMNWVKQRPGKGLEWIGRIYPGDGETNNNGKFKGKATLTADKSSTTAYMQLSSLTSEDSAVYFCARGYGDYSFAYWGQGTLVTVSA
VL: DIVMTQAAPSVPVTPGESVSISCRSSKSLLHSNGNTYLYWFLQRPGQSPQLLIYRMSNLASGVPDRFSGSGSGAAFTLRISRVEAEDVGVYYCMQHLEYPYTFGSGTKLEIK
modifications: (Gly4Ser)1 linker; C-terminal FLAG tag
**Q.** B3 was tested. Which agonistic activity (EC50 value: pM) in BaF3-human Mpl, cell proliferation (WST-8) [1] did it give?
**A.** 76 pM

B4: VB140 diabody (scFv, V domains shown, part only)
VH: QVQLQQSGPELVKPGASVKISCRAFGYAFSNSWMNWVKQRPGKGLEWIGRIYPGDGETNNNGKFKGKATLTADKSSSTAYMQLSSLTSEDSAVYFCARGYGDYSFAYWGQGTLVTVSA
VL: DIVMTQAAPSVPVTPGESVSISCRSSKSLLHSNGNTYLYWFLQRPGQSPQLLIYRMSNLASGVPDRFSGSGSGAAFTLRISRVEAEDVGVYYCMQHLEYPYTFGSGTKLEIK
modifications: (Gly4Ser)1 linker; C-terminal FLAG tag
**Q.** How did the agonistic activity (EC50 value: pM) in BaF3-human Mpl, cell proliferation (WST-8) [1] turn out when B4 was run?
**A.** 89 pM

B5: TA136 sc(Fv)2 (scFv, part only; not given: linkers and FLAG tag, part only)
scFv, part: DVQLQESGPGLVKPSQSLSLTCTVTGYSITSDYAWSWIRQLPGNKLEWMGYITYSGYSIYNPSLKSRISISRDTSKNQLFLQLNSVTTEDTATYYCVGGYDNMDYWGQGTSVTVSSQIVLTQSPAIMSASPGEKVTLTCSASSSVSSSHLYWYQQKPGSSPKLWIYSTSNLASGVPARFSGSGSGTSYSLTISNMETEDAASYFCHQWSSYPWTFGGGTKLEIKDVQLQESGPGLVKPSQSLSLTCTVTGYSITSDYAWSWIRQLPGNKLEWMGYITYSGYSIYNPSLKSRISISRDTSKNQLFLQLNSVTTEDTATYYCVGGYDNMDYWGQGTSVTVSSQIVLTQSPAIMSASPGEKVTLTCSASSSVSSSHLYWYQQKPGSSPKLWIYSTSNLASGVPARFSGSGSGTSYSLTISNMETEDAASYFCHQWSSYPWTFGGGTKLEIK
**Q.** For B5, which agonistic activity (EC50 value: pM) in BaF3-human Mpl, cell proliferation (WST-8) [1] is on record?
**A.** 54 pM

B6: VB45B sc(Fv)2 (scFv, part only; not given: linkers and FLAG tag, part only)
scFv, part: QVQLQQSGPELVKPGASVKISCKASGYAFSSSWMNWVKQRPGKGLEWIGRIYPGDGETNNNGKFKGKATLTADKSSTTAYMQLSSLTSEDSAVYFCARGYGDYSFAYWGQGTLVTVSADIVMTQAAPSVPVTPGESVSISCRSSKSLLHSNGNTYLYWFLQRPGQSPQLLIYRMSNLASGVPDRFSGSGSGAAFTLRISRVEAEDVGVYYCMQHLEYPYTFGSGTKLEIKQVQLQQSGPELVKPGASVKISCKASGYAFSSSWMNWVKQRPGKGLEWIGRIYPGDGETNNNGKFKGKATLTADKSSTTAYMQLSSLTSEDSAVYFCARGYGDYSFAYWGQGTLVTVSADIVMTQAAPSVPVTPGESVSISCRSSKSLLHSNGNTYLYWFLQRPGQSPQLLIYRMSNLASGVPDRFSGSGSGAAFTLRISRVEAEDVGVYYCMQHLEYPYTFGSGTKLEIK
**Q.** Which agonistic activity (EC50 value: pM) in BaF3-human Mpl, cell proliferation (WST-8) [1] does the source give for B6 here?
**A.** 30 pM

B7: VB140 sc(Fv)2 (scFv, part only; not given: linkers and FLAG tag, part only)
scFv, part: QVQLQQSGPELVKPGASVKISCRAFGYAFSNSWMNWVKQRPGKGLEWIGRIYPGDGETNNNGKFKGKATLTADKSSSTAYMQLSSLTSEDSAVYFCARGYGDYSFAYWGQGTLVTVSADIVMTQAAPSVPVTPGESVSISCRSSKSLLHSNGNTYLYWFLQRPGQSPQLLIYRMSNLASGVPDRFSGSGSGAAFTLRISRVEAEDVGVYYCMQHLEYPYTFGSGTKLEIKQVQLQQSGPELVKPGASVKISCRAFGYAFSNSWMNWVKQRPGKGLEWIGRIYPGDGETNNNGKFKGKATLTADKSSSTAYMQLSSLTSEDSAVYFCARGYGDYSFAYWGQGTLVTVSADIVMTQAAPSVPVTPGESVSISCRSSKSLLHSNGNTYLYWFLQRPGQSPQLLIYRMSNLASGVPDRFSGSGSGAAFTLRISRVEAEDVGVYYCMQHLEYPYTFGSGTKLEIK
**Q.** How did the agonistic activity (EC50 value: pM) in BaF3-human Mpl, cell proliferation (WST-8) [1] turn out when B7 was run?
**A.** 38 pM

B8: VB16 sc(Fv)2 (scFv, part only; not given: linkers and FLAG tag, part only)
scFv, part: QVQLQQPGTELVRPGASVKLSCKASGYTFTDYWVNWVKQRPGRGLEWIGRIHPYDSETHYNQKFKNKATLTVDKSSSTAYIQLSSLTSEDSAVYYCASGGWFASWGQGTLVTVSADIVMTQAAPSVPVTPGESVSISCRSSKSLLYSNGNTYLYWFLQRPGQSPQLLIYRMSNLASGVPDRFSGSGSGTAFTLTISSVEAEDVGVYYCMQHLEYPYTFGSGTKLEIKQVQLQQPGTELVRPGASVKLSCKASGYTFTDYWVNWVKQRPGRGLEWIGRIHPYDSETHYNQKFKNKATLTVDKSSSTAYIQLSSLTSEDSAVYYCASGGWFASWGQGTLVTVSADIVMTQAAPSVPVTPGESVSISCRSSKSLLYSNGNTYLYWFLQRPGQSPQLLIYRMSNLASGVPDRFSGSGSGTAFTLTISSVEAEDVGVYYCMQHLEYPYTFGSGTKLEIK
**Q.** Which agonistic activity (EC50 value: pM) in BaF3-human Mpl, cell proliferation (WST-8) [1] does the source give for B8 here?
**A.** 95 pM

B9: TA136 diabody (scFv, V domains shown, part only)
VH: DVQLQESGPGLVKPSQSLSLTCTVTGYSITSDYAWSWIRQLPGNKLEWMGYITYSGYSIYNPSLKSRISISRDTSKNQLFLQLNSVTTEDTATYYCVGGYDNMDYWGQGTSVTVSS
VL: QIVLTQSPAIMSASPGEKVTLTCSASSSVSSSHLYWYQQKPGSSPKLWIYSTSNLASGVPARFSGSGSGTSYSLTISNMETEDAASYFCHQWSSYPWTFGGGTKLEIK
modifications: (Gly4Ser)1 linker; C-terminal FLAG tag
**Q.** For B9, which agonistic activity (EC50 value: pM) in BaF3-human Mpl, cell proliferation (WST-8) [1] is on record?
**A.** 3080 pM
